Results: IntAct's records for PubMed 17032765

B1: Segment polarity protein dishevelled homolog DVL-2 (Mus musculus), Q60838 (parent)
chain: MAGSSAGGGGVGETKVIYHLDEEETPYLVKIPVPAERITLGDFKSVLQRPAGAKYFFKSMDQDFGVVKEEISDDNARLPCFNGRVVSWLVSSDTPQPEVAPPAHESRTELVPPPPPLPPLPPERTSGIGDSRPPSFHPNVSSSHENLEPETETESVVSLRRDRPRRRDSSEHGAGGHRPGGPSRLERHLAGYESSSTLMTSELESTSLGDSDEDDTMSRFSSSTEQSSASRLLKRHRRRRKQRPPRMERTSSFSSVTDSTMSLNIITVTLNMEKYNFLGISIVGQSNERGDGGIYIGSIMKGGAVAADGRIEPGDMLLQVNDMNFENMSNDDAVRVLRDIVHKPGPIVLTVAKCWDPSPQAYFTLPRNEPIQPIDPAAWVSHSAALTGAFPAYPGSSSMSTITSGSSLPDGCEGRGLSVHMDMASVTKAMAAPESGLEVRDRMWLKITIPNAFLGSDVVDWLYHHVEGFPERREARKYASGLLKAGLIRHTVNKITFSEQCYYVFGDLSGGCESYLVNLSLNDNDGSSGASDQDTLAPLPGATPWPLLPTFSYQYPAPHPYSPQPPPYHELSSYTYGGGSASSQHSEGSRSSGSTRSDGGAGRTGRPEERAPESKSGSGSESELSSRGGSLRRGGEPGGTGDGGPPPSRGSTGAPPNLRALPGLHPYGAPSGMALPYNPMMVVMMPPPPPPVSTAVQPPGAPPVRDLGSVPPELTASRQSFHMAMGNPSEFFVDVM

Variants of: B1
Settings: with Ankrd6, Q69ZU8-1
Ankrd6, Q69ZU8-1, sequence (Q69ZU8 whole entry): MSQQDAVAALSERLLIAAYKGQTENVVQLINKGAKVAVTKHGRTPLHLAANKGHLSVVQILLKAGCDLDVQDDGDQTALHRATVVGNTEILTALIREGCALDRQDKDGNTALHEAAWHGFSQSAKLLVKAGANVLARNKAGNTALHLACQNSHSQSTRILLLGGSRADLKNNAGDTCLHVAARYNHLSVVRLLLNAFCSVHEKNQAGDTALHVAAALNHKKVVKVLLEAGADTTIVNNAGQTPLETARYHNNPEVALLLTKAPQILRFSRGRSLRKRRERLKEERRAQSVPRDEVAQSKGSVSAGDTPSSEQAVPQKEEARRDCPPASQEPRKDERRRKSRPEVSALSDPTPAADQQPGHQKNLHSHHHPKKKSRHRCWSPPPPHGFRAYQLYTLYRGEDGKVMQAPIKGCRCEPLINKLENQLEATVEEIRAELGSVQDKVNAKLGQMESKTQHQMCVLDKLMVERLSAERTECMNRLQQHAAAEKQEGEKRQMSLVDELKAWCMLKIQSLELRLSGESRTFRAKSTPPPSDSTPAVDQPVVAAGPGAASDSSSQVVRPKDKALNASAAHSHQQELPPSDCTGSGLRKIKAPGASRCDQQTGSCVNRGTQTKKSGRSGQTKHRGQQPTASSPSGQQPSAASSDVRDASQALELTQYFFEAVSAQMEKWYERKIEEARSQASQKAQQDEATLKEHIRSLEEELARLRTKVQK

Which “effect of a mutation on the interaction” value does the source give for K446M here?
Its value is “decreasing interaction strength”.
